Results taken from patent US20240309093A1 (MINGHUI PHARMACEUTICAL HANGZHOU, published 2024).

T1: recombinant mouse PD-1-his protein (mouse, UniProt Q02242 25-167, limits assumed)
T1 construct: not shown: his tag
T1 sequence (looked up): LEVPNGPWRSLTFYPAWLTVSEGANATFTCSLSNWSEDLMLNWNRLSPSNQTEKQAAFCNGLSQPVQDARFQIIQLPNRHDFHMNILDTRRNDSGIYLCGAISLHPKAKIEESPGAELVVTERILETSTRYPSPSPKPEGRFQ


Assays:
[1] = target: T1, recombinant mouse PD-1-his protein; experiment: ELISA; PD-1-his coated 2 µg/mL, anti-human IgG-HRP
Method: Ninety-six-well Greiner plates were coated with 2 μg/mL of recombinant human PD-1-his protein, recombinant monkey PD-1-his protein and recombinant mouse PD-1-his protein at 4° C. overnight. The next day, the plates were blocked with 1% casein. […] Then, the plates were washed with PBST. Anti-human IgG-HRP (diluted in 1% casein at 1:5000) was added and incubated for 1 hr., and binding detection was performed.

[2] = target: T2, recombinant human PD-1-his protein (human, UniProt Q15116 25-167); experiment: SPR (Biacore 8K); PD-1-his amine-coupled to CM5, 1:1 Langmuir fit
T2 construct: also called hPD-1-his; not shown: his tag
T2 sequence (Q15116 25-167 limits assumed): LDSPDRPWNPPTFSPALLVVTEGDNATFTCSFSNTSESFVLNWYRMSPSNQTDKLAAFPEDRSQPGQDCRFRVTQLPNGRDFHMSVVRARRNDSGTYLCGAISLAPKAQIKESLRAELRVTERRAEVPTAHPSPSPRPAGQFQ
Method: About 250RU of recombinant human PD-1-his protein was coupled to a CM5 chip at 25° C. using an amine coupling kit (GE Healthcare, Cat No. BR100050) according to standard amine coupling procedure. […] (five concentrations were detected). The binding time was 120 s, and the dissociation time was 600 s. The curve was fitted with 1:1 Langmuir binding model using Biacore®8K analysis software (BIAevaluation) to determine the kinetic constants thereof, such as, association rate constant, dissociation rate constant, equilibrium dissociation constant, etc.

[3] = target: T3, human PD-1 on HEK293 cells overexpressing human PD-1 (human, UniProt Q15116 25-288); experiment: flow cytometry on HEK293 cells overexpressing human PD-1; PE-anti-human IgG
T3 construct: whole, on cells; also called HEK293/hPD1; hPD-1
T3 sequence (Q15116 25-288): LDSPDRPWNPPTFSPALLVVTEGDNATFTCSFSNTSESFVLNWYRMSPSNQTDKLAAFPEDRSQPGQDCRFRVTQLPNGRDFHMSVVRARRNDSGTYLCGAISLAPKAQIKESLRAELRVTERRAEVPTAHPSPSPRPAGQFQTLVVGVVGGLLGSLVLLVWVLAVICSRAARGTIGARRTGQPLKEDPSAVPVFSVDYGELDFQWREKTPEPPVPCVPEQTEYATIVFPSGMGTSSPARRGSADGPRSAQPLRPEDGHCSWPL
Method: HEK293 cells overexpressing the human PD-1 were cultured in a DMEM medium containing 10% FBS in a CO₂ incubator (37° C., 5% CO₂). The cells were harvested and washed once with test buffer. Cells were counted and detected for viability. […] The cells were washed with washing buffer, and 100 μL of PE-anti-human IgG was added in accordance with the instruction and incubated in dark at 4° C. for 1 hr. The cells were washed three times with washing buffer, and individual samples were re-suspended in 200 μL of PBS and detected by flow cytometer. The data were analyzed using FCS Express 6 Plus and GraphPad Prism 5 software.

[4] = target: T2, recombinant human PD-1-his protein; experiment: ELISA (first round of humanization); PD-1-his coated 2 µg/mL, anti-human IgG Fc-HRP
Method: 96-well ELISA plates were coated with 2 μg/mL of recombinant human PD-1-his antigen protein at 30 μL/well at 4° C. overnight. The plates were washed three times with PBST. 5% PBS-Milk was added and incubated at room temperature for 2 h. The plates were washed three times with PBST. All the nanobody-Fc fusion proteins were subject to 3-fold gradient dilutions with an initial concentration of 10 μg/mL, added into each well at 30 μL/well, and incubated at room temperature for 1 hr. The plates were washed three times with PBST. The secondary antibody Goat-Anti-Human-IgG-Fc-HRP (purchased from Sigma) was diluted at 1:8000, added into each well at 30 μL/well, and incubated at room temperature for 50 min. The plates were washed three times with PBST. TMB (purchased from SurModics) was added into each well at 30 μL/well and developed at room temperature in dark for 1 min to 5 min. 2 M hydrochloric acid was added at 30 μL/well to stop the reaction. The OD450 absorbance value was read by a microplate reader.

[5] = target: T4, recombinant human PD-1 (C-Fc & C-Avi & C-6×His) (human, UniProt Q15116 25-167); experiment: competitive ELISA; PD-L1 (C-Fc) coated, 0.5 µg/mL PD-1 (C-Fc & C-Avi & C-6×His), streptavidin-HRP
T4 construct: not shown: C-terminal Fc, Avi tag and 6×His tag
T4 sequence (Q15116 25-167 limits assumed): as the sequence (Q15116 25-167 limits assumed) above
Method: The plates were blocked with 1% casein. […] The plates were washed with PBST between incubations. Horseradish peroxidase-labelled streptavidin (1:10000) was used for detection, and Graphpad Prism software was used to fit the curve and calculate the EC₅₀ value, with the results shown in Table 3.

[6] = target: T3, human PD-1 on HEK293 cells …; experiment: competitive flow cytometry on HEK293 cells overexpressing human PD-1; 1.0 µg/mL biotinylated human PD-L1 as competitor, PE-SA
Method: The cells were harvested and washed once with test buffer. […] The data were analyzed using FCS Express 6 Plus and GraphPad Prism 5 software.

[7] = target: T5, recombinant human PD-1 protein (human, UniProt Q15116 25-167, limits assumed); experiment: competitive ELISA; PD-1 coated 2 µg/mL, 4 µg/mL PD-L1-Fc as competitor, anti-human IgG-HRP
T5 construct: also called recombinant human PD-1 antigen; human recombinant PD-1
T5 sequence (Q15116 25-167 limits assumed): as above
Method: Ninety-six-well plates were coated with recombinant human PD-1 antigen (2 μg/mL) at 4° C. overnight. The plates were blocked with 1% casein. […] The plates were washed with PBST between incubations.

Binder | binding result [1] | Kd [2] [pM] | koff [2] [s⁻¹] | kon [2] [M⁻¹ s⁻¹] | EC50 [3] [µg/mL] | EC50 [4] [µg/mL] | EC50 [5] [µg/mL] | EC50 [6] [µg/mL] | EC50 [7] [µg/mL]
MHPD1-A Fc (Fc fusion, C-terminal of VHH directly connected to the N-terminal of the human Fc hinge region; also called nanobody-Fc fusion protein; fusion protein; not shown: human Fc fragment with hinge) QVQLVESGGGSVQVGGSLTLSCAASGSDPSIYAMGWFRQAPGKEHEFVAGIGWSAATTYYADSVKGRFGISRDNTKNTVALLMNSLKPEDTAIYYCAADLDHSGFDYWGQGTQVTVSS | no binding (tested: 5 µg/mL and 1.67 µg/mL) | 42.5 | 1.95e-05 | 460000 | 0.245 | 0.14 | 0.499 | 0.549 | 
MHPD1-A (VHH, tag not described; also called VHH; single-domain antibody MHPD1-A) VHH: QVQLVESGGGSVQVGGSLTLSCAASGSDPSIYAMGWFRQAPGKEHEFVAGIGWSAATTYYADSVKGRFGISRDNTKNTVALLMNSLKPEDTAIYYCAADLDHSGFDYWGQGTQVTVSS |  |  |  |  |  |  |  |  | 1.71
